For the assay, the target named is EGFR (human (endogenous on human cancer cell …, UniProt P00533 25-1210)). Briefly: cell-based or functional assay.

B1: ADC-126 (antibody, human IgG1, V domains shown)
VH: QVQLQQSGAEVKKPGSSVKVSCKASGYTFTNYYIYWVRQAPGQGLEWIGGINPTSGGSNFNEKFKTRVTITVDESTNTAYMELSSLRSEDTAFYFCARQGLWFDSDGRGFDFWGQGSTVTVSS
VL: DIQMTQSPSSLSASVGDRVTITCRSSQNIVHSNGNTYLDWYQQTPGKAPKLLIYKVSNRFSGVPSRFSGSGSGTDFTFTISSLQPEDIATYYCFQYSHVPWTFGQGTKLQITR
modifications: linker-drug LD-105 (maleimide) coupled to cysteine sulfhydryls after TCEP reduction; average drug loading y=4.96 per antibody; positions not given
On to B1, for which the “IC50 of in vitro proliferation inhibition, EGFR-positive MDA-MB-468 cells (CCK8, 6 days)” value came to 0.21 nM.

B2: ADC-128 (antibody, human IgG1, V domains shown)
VH: QVQLQQSGAEVKKPGSSVKVSCKASGYTFTNYYIYWVRQAPGQGLEWIGGINPTSGGSNFNEKFKTRVTITVDESTNTAYMELSSLRSEDTAFYFCARQGLWFDSDGRGFDFWGQGSTVTVSS
VL: DIQMTQSPSSLSASVGDRVTITCRSSQNIVHSNGNTYLDWYQQTPGKAPKLLIYKVSNRFSGVPSRFSGSGSGTDFTFTISSLQPEDIATYYCFQYSHVPWTFGQGTKLQITR
modifications: linker-drug LD-13 coupled to cysteine sulfhydryls after TCEP reduction; average drug loading y=7.62 per antibody; positions not given
As for B2, the “IC50 of in vitro proliferation inhibition, EGFR-positive MDA-MB-468 cells (CCK8, 6 days)” value was found to be 0.21 nM.

B3: ADC-129 (antibody, human IgG1, V domains shown)
VH: QVQLQQSGAEVKKPGSSVKVSCKASGYTFTNYYIYWVRQAPGQGLEWIGGINPTSGGSNFNEKFKTRVTITVDESTNTAYMELSSLRSEDTAFYFCARQGLWFDSDGRGFDFWGQGSTVTVSS
VL: DIQMTQSPSSLSASVGDRVTITCRSSQNIVHSNGNTYLDWYQQTPGKAPKLLIYKVSNRFSGVPSRFSGSGSGTDFTFTISSLQPEDIATYYCFQYSHVPWTFGQGTKLQITR
modifications: linker-drug LD-99 coupled to cysteine sulfhydryls after TCEP reduction; average drug loading y=7.11 per antibody; positions not given
Turning to B3, the “IC50 of in vitro proliferation inhibition, EGFR-positive MDA-MB-468 cells (CCK8, 6 days)” value came out at 0.2 nM.

The values above are taken from patent publication US20260001891A1 (KEYMED BIOSCIENCES CHENGDU, published 2026).
